Target: MOB1B 2-216 (UniProt Q7L9L4)
Assay: SPOT peptide array overlaid with GST-MOB1B

| Substance | binding against the reference (reference: nonphosphorylated T353 15-mer, sites T353) | binding against the reference (reference: nonphosphorylated T367 15-mer, sites T367) |
| --- | --- | --- |
| MST1 (from UniProt Q13043) pT353 15-mer | stronger |  |
| MST1 (from UniProt Q13043) pT367 15-mer |  | stronger |

From publication PMC5461540, “MOB1 Mediated Phospho-recognition in the Core Mammalian Hippo Pathway” (Molecular & Cellular Proteomics : MCP, 2017)
